What follows are molecules tested on HEK293FT cells transfected with TF library (assay: Screening of TF condensates based on fluorescent puncta). Conditions: Figure 1B numerical data; TF library screen, one value per transcriptional factor.
Assay type: cell-based
Outline: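 Cells were seeded onto plasmid/PEI-loaded wells (plasmid 1.6 μg/ml final) and grown 60 h. Medium with or without glucose followed for 12 h. Fixed, permeabilized cells were stained against Flag or GAL4 tags, and condensate puncta were quantified from 50 random fields per well.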

Molecule | Z score of condensed fraction
SMYD1 (protein, UniProt Q8NB12 1-490, looked up) Histone-lysine …: MTIGRMENVEVFTAEGKGRGLKATKEFWAADIIFAERAYSAVVFDSLVNFVCHTCFKRQEKLHRCGQCKFAHYCDRTCQKDAWLNHKNECSAIKRYGKVPNENIRLAARIMWRVEREGTGLTEGCLVSVDDLQNHVEHFGEEEQKDLRVDVDTFLQYWPPQSQQFSMQYISHIFGVINCNGFTLSDQRGLQAVGVGIFPNLGLVNHDCWPNCTVIFNNGNHEAVKSMFHTQMRIELRALGKISEGEELTVSYIDFLNVSEERKRQLKKQYYFDCTCEHCQKKLKDDLFLGVKDNPKPSQEVVKEMIQFSKDTLEKIDKARSEGLYHEVVKLCRECLEKQEPVFADTNIYMLRMLSIVSEVLSYLQAFEEASFYARRMVDGYMKLYHPNNAQLGMAVMRAGLTNWHAGNIEVGHGMICKAYAILLVTHGPSHPITKDLEAMRVQTEMELRMFRQNEFMYYKMREAALNNQPMQVMAEPSNEPSPALFHKKQ | -0.4905
SMAD3 (protein, UniProt P84022 2-425, looked up) Mothers against …: SSILPFTPPIVKRLLGWKKGEQNGQEEKWCEKAVKSLVKKLKKTGQLDELEKAITTQNVNTKCITIPRSLDGRLQVSHRKGLPHVIYCRLWRWPDLHSHHELRAMELCEFAFNMKKDEVCVNPYHYQRVETPVLPPVLVPRHTEIPAEFPPLDDYSHSIPENTNFPAGIEPQSNIPETPPPGYLSEDGETSDHQMNHSMDAGSPNLSPNPMSPAHNNLDLQPVTYCEPAFWCSISYYELNQRVGETFHASQPSMTVDGFTDPSNSERFCLGLLSNVNRNAAVELTRRHIGRGVRLYYIGGEVFAECLSDSAIFVQSPNCNQRYGWHPATVCKIPPGCNLKIFNNQEFAALLAQSVNQGFEAVYQLTRMCTIRMSFVKGWGAEYRRQTVTSTPCWIELHLNGPLQWLDKVLTQMGSPSIRCSSVS | -0.8472
SIX3 (protein, UniProt O95343 1-332, looked up) Homeobox protein SIX3: MVFRSPLDLYSSHFLLPNFADSHHRSILLASSGGGNGAGGGGGAGGGSGGGNGAGGGGAGGAGGGGGGGSRAPPEELSMFQLPTLNFSPEQVASVCETLEETGDIERLGRFLWSLPVAPGACEAINKHESILRARAVVAFHTGNFRDLYHILENHKFTKESHGKLQAMWLEAHYQEAEKLRGRPLGPVDKYRVRKKFPLPRTIWDGEQKTHCFKERTRSLLREWYLQDPYPNPSKKRELAQATGLTPTQVGNWFKNRRQRDRAAAAKNRLQHQAIGPSGMRSLAEPGCPTHGSAESPSTAASPTTSVSSLTERADTGTSILSVTSSDSECDV | -0.646
SMAD7 (protein, UniProt O15105 1-426, looked up) Mothers against …: MFRTKRSALVRRLWRSRAPGGEDEEEGAGGGGGGGELRGEGATDSRAHGAGGGGPGRAGCCLGKAVRGAKGHHHPHPPAAGAGAAGGAEADLKALTHSVLKKLKERQLELLLQAVESRGGTRTACLLLPGRLDCRLGPGAPAGAQPAQPPSSYSLPLLLCKVFRWPDLRHSSEVKRLCCCESYGKINPELVCCNPHHLSRLCELESPPPPYSRYPMDFLKPTADCPDAVPSSAETGGTNYLAPGGLSDSQLLLEPGDRSHWCVVAYWEEKTRVGRLYCVQEPSLDIFYDLPQGNGFCLGQLNSDNKSQLVQKVRSKIGCGIQLTREVDGVWVYNRSSYPIFIKSATLDNPDSRTLLVHKVFPGFSIKAFDYEKAYSLQRPNDHEFMQQPWTGFTVQISFVKGWGQCYTRQFISSCPCWLEVIFNSR | -1.192
SIX6 (protein, UniProt Q9QZ28 1-246, looked up) Homeobox protein SIX6: MFQLPILNFSPQQVAGVCETLEESGDVERLGRFLWSLPVAPAACEALNKNESVLRARAIVAFHGGNYRELYHILENHKFTKESHAKLQALWLEAHYQEAEKLRGRPLGPVDKYRVRKKFPLPRTIWDGEQKTHCFKERTRHLLREWYLQDPYPNPSKKRELAQATGLTPTQVGNWFKNRRQRDRAAAAKNRLQQQVLSQGPGRVLRSEGEGTPEVLGVASSPAASLSSKAATSAISITSSDSECDI | 1.297
SNAI2 (protein, UniProt O43623 1-268, looked up) Zinc finger protein SNAI2: MPRSFLVKKHFNASKKPNYSELDTHTVIISPYLYESYSMPVIPQPEILSSGAYSPITVWTTAAPFHAQLPNGLSPLSGYSSSLGRVSPPPPSDTSSKDHSGSESPISDEEERLQSKLSDPHAIEAEKFQCNLCNKTYSTFSGLAKHKQLHCDAQSRKSFSCKYCDKEYVSLGALKMHIRTHTLPCVCKICGKAFSRPWLLQGHIRTHTGEKPFSCPHCNRAFADRSNLRAHLQTHSDVKKYQCKNCSKTFSRMSLLHKHEESGCCVAH | -0.6818
SMARCAD1 (protein, UniProt Q9H4L7 1-1026, looked up) SWI/SNF-related …: MNLFNLDRFRFEKRNKIEEAPEATPQPSQPGPSSPISLSAEEENAEGEVSRANTPDSDITEKTEDSSVPETPDNERKASISYFKNQRGIQYIDLSSDSEDVVSPNCSNTVQEKTFNKDTVIIVSEPSEDEESQGLPTMARRNDDISELEDLSELEDLKDAKLQTLKELFPQRSDNDLLKLIESTSTMDGAIAAALLMFGDAGGGPRKRKLSSSSEPYEEDEFNDDQSIKKTRLDHGEESNESAESSSNWEKQESIVLKLQKEFPNFDKQELREVLKEHEWMYTEALESLKVFAEDQDMQYVSQSEVPNGKEVSSRSQNYPKNATKTKLKQKFSMKAQNGFNKKRKKNVFNPKRVVEDSEYDSGSDVGSSLDEDYSSGEEVMEDGYKGKILHFLQDASIGELTLIPQCSQKKAQKITELRPFNSWEALFTKMSKTNGLSEDLIWHCKTLIQERDVVIRLMNKCEDISNKLTKQVTMLTGNGGGWNIEQPSILNQSLSLKPYQKVGLNWLALVHKHGLNGILADEMGLGKTIQAIAFLAYLYQEGNNGPHLIVVPASTIDNWLREVNLWCPTLKVLCYYGSQEERKQIRFNIHSRYEDYNVIVTTYNCAISSSDDRSLFRRLKLNYAIFDEGHMLKNMGSIRYQHLMTINANNRLLLTGTPVQNNLLELMSLLNFVMPHMFSSSTSEIRRMFSSKTKSADEQSIYEKERIAHAKQIIKPFILRRVKEEVLKQLPPKKDRIELCAMSEKQEQLYLGLFNRLKKSINNLEKNTEMCNVMMQLRKMANHPLLHRQYYTAEKLKEMSQLMLKEPTHCEANPDLIFEDMEVMTDFELHVLCKQYRHINNFQLDMDLILDSGKFRVLGCILSELKQKGDRVVLFSQFTMMLDILEVLLKHHQHRYLRLDGKTQISERIHLIDEFNTDMDIFVFLLSTKAGGLGINLTSANVVILHDIDCNPYNDKQAEDRCHRVGQTKEVLVIKLISQGTIEESMLKINQQKLKLEQDMTTVDEGDEGSMPADIATLLKTSMGL | -0.654
BCL11B (protein, UniProt Q9C0K0 1-894, looked up) B-cell lymphoma/leukemia 11B: MSRRKQGNPQHLSQRELITPEADHVEAAILEEDEGLEIEEPSGLGLMVGGPDPDLLTCGQCQMNFPLGDILVFIEHKRKQCGGSLGACYDKALDKDSPPPSSRSELRKVSEPVEIGIQVTPDEDDHLLSPTKGICPKQENIAGPCRPAQLPAVAPIAASSHPHSSVITSPLRALGALPPCLPLPCCSARPVSGDGTQGEGQTEAPFGCQCQLSGKDEPSSYICTTCKQPFNSAWFLLQHAQNTHGFRIYLEPGPASSSLTPRLTIPPPLGPEAVAQSPLMNFLGDSNPFNLLRMTGPILRDHPGFGEGRLPGTPPLFSPPPRHHLDPHRLSAEEMGLVAQHPSAFDRVMRLNPMAIDSPAMDFSRRLRELAGNSSTPPPVSPGRGNPMHRLLNPFQPSPKSPFLSTPPLPPMPPGGTPPPQPPAKSKSCEFCGKTFKFQSNLIVHRRSHTGEKPYKCQLCDHACSQASKLKRHMKTHMHKAGSLAGRSDDGLSAASSPEPGTSELAGEGLKAADGDFRHHESDPSLGHEPEEEDEEEEEEEEELLLENESRPESSFSMDSELSRNRENGGGGVPGVPGAGGGAAKALADEKALVLGKVMENVGLGALPQYGELLADKQKRGAFLKRAAGGGDAGDDDDAGGCGDAGAGGAVNGRGGGFAPGTEPFPGLFPRKPAPLPSPGLNSAAKRIKVEKDLELPPAALIPSENVYSQWLVGYAASRHFMKDPFLGFTDARQSPFATSSEHSSENGSLRFSTPPGDLLDGGLSGRSGTASGGSTPHLGGPGPGRPSSKEGRRSDTCEYCGKVFKNCSNLTVHRRSHTGERPYKCELCNYACAQSSKLTRHMKTHGQIGKEVYRCDICQMPFSVYSTLEKHMKKWHGEHLLTNDVKIEQAERS | -0.7987
SMAD4 (protein, UniProt Q13485 1-552, looked up) Mothers against …: MDNMSITNTPTSNDACLSIVHSLMCHRQGGESETFAKRAIESLVKKLKEKKDELDSLITAITTNGAHPSKCVTIQRTLDGRLQVAGRKGFPHVIYARLWRWPDLHKNELKHVKYCQYAFDLKCDSVCVNPYHYERVVSPGIDLSGLTLQSNAPSSMMVKDEYVHDFEGQPSLSTEGHSIQTIQHPPSNRASTETYSTPALLAPSESNATSTANFPNIPVASTSQPASILGGSHSEGLLQIASGPQPGQQQNGFTGQPATYHHNSTTTWTGSRTAPYTPNLPHHQNGHLQHHPPMPPHPGHYWPVHNELAFQPPISNHPAPEYWCSIAYFEMDVQVGETFKVPSSCPIVTVDGYVDPSGGDRFCLGQLSNVHRTEAIERARLHIGKGVQLECKGEGDVWVRCLSDHAVFVQSYYLDREAGRAPGDAVHKIYPSAYIKVFDLRQCHRQMQQQAATAQAAAAAQAAAVAGNIPGPGSVGGIAPAISLSAAAGIGVDDLRRLCILRMSFVKGWGPDYPRQSIKETPCWIEIHLHRALQLLDEVLHTMPIADPQPLD | -0.5517

Source: article PMC11574045, “A cofactor-induced repressive type of transcription factor condensation can be induced by synthetic peptides to suppress tumorigenesis” (The EMBO Journal, 2024)
